Data taken from the nanobody polyreactivity screen of Harvey et al. (2022).

Experiment: yeast display, Sf9 membrane polyspecificity reagent, FACS + sequencing; frameworks hold sequencing errors
How it was run: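 Sorting gates, low and high (top ~1%), were placed on anti-HA fluorescence to track expression and on streptavidin fluorescence to track reagent binding. A clone's polyreactivity label is taken from the gate it came out of. The reagent was 10% biotinylated, detergent-solubilized Sf9 membrane, applied for 1 hour at 4 °C to galactose-induced yeast display cells.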

Sequence	polyreactivity (PSR sort gate)
QVQLVESGGGLVQAGGSLRLSCAASGRIFEPYAMGWYRKAPGKERELLAAITSGGSTDYADSVKGRFTISRDNAKNTVYLQMNSLKPEDTAVYYCATRWGYAVSFDFYFLLSGVDYWGQGTQVTVSS	low polyreactivity
QVQLVESGGGLVQAGGSLRLSCAASGRIFKLYAMGWYRQAPGKERELVATIRYSGGSTYYADSVKGRFTISRDNAKNSVYLHMNSLKPEDTAVYYCNYVSRRQYFEYDYWGQGTQVTVSS	low polyreactivity
QVQLVESGGGLVQAGGSLRLSCAASGRIFPEYAMGWYRQAPGKERELVAAITSGGNYADSVKGRFTISRDNAKNTVYLQMNSLKPEDTAVYYCAAVYLWYGSWPLHFAAYDYWGQGTQVTVSS	low polyreactivity
QVQLVESGGGLVQAGGSLRLSCAASGFTFYYYTMGWYRQAPGKERELVAGISGTGGSTYYADSVKGRFTISRDNAKNTVYLQMNSLKPEDTAVYYCAAGPWYWGQGTQVTVSS	low polyreactivity
QDQLVESGGGLVQAGGSLRLSCAASGRTFYYAMGWYRQAPGKERYADSVKGRFTISRDNAKNTVYLQMNSLKPEDTAVYYCAAKVPEPPSLDESDYWGQGTQVTVSS	low polyreactivity
QVQLVESGGGLVQAGGSLSLSCDASGSIFRSNAMGWYRQAPGKERELVAAISRSGGRTYYADSVKGRFTISRDNAKNTVYLQMNSLKPEDTAVYYCAAQVVRSLKYEYWGQGTQVTVSS	high polyreactivity
QVQLVESGGGLVQAGGSLRLSCAASGSTFYYYAMGWYRQAPGKERELVAAISVRAGITYYADSVKGRFTISRDNAKNTVYLQMNSLKPEDTAVYYCAKDHWTTSSDEGDYWGQGTQVTVSS	low polyreactivity
QVQLVESGGGLVQARGSLRLICAASGRTFEHNSMGWYRQAPGKERELVARITSGGRTYYADSVKGRFTISRDNAKNTVYLQMNSLKPEDTAVYYCATVGRGYDERHNYWGQGTQVTVSS	high polyreactivity
QVQLVDSGGGLVQAGGSLRLSCAASGSTLVYKDMGLYRQAPGKEREFVAAIRSNDGSTYYADSVKGRFTISRDNAKNTVYLQMNSLKPEDTAVYYCAKGRYAYSIWDDYWGQGTQVTVSS	low polyreactivity
QVQLVESGGGLVQAGGSLRLSCAASGRTFKFYAMGWYRQAPGKERELVARITSNSGSTYYADSVKGRFTISRDTAKNTVYLQMTSLKPEDTAVYYCAVRGTLGSYWYTYYYWGQGTQVTVSS	high polyreactivity
QVQLVESGGGLDQAGGSLRLSCAASGSIFAPNAMGWYRQAPGKERELVAAITSSGGRTYYADSVKGRFTISRDNAKNTVYLQMNSLKPEDTAVYYCNACYYVRRDYDYWGQGTQVTVSS	low polyreactivity
QVQLAESGGGLVQAGGSLRLSCAASGIIFVYNAMGWYIKAPGKERELVAVISFIGDSTYYADSVKGRFTISRDNAKNTVYLQMNSLKPEDTAVYYCAADYYMPYWFFVGYDYWGQGTQVTVSS	low polyreactivity
QVQLVESGGVLVQAGASLRLSCAASVFTFRRYAMGWYRQAPGKERELVAAITRDDSTNYADSVKGRFTISRDNAKNTVYLQMNSLKPEDTAVYYCAARLWYPYYYWGQGTQVTVSS	high polyreactivity
QVQLVESGGGLVQSGGSIRLSCAASGSTFLWYCMGWYRQAPGKERELVASISRGGGTDYADSVKGRFTISRDNAKNTVYLQMNSLKPEDTAVYYCAATGVNRYDHWGQGTHVTVSS	low polyreactivity
QVQLVESGGGLVQAGGSLRLSCAASGSIFNRYARGWYRQAPGKERELVAAISSTGSTYYADSVKGRFTISRDNAKNTVYLQMNSLKPEDTAVYYCNADATHDWLRVDTYEYWGQGTQVTVSS	low polyreactivity
QVQLQESGGGLVQAGGSLSLSCAESGTISFTRDMVWYRQAPGKEREFVASIDRGASTYYADSVKGRFTISRDNAKNTVYLQMNSLKPEDSAVYYKAVIAPFYSSFAYWGQGTQVTVSS	high polyreactivity
QVQIVESGGGLVQAGGSLRLSCAASGRIFYWNVMGWYRQAPGKERELVAAITRSSGGTSTYADSVKGRFTISRVNAKNTVYLQMNSLKPEDTAVYYCATRRRQAKSGRAYDYWGQGTQVTVSS	high polyreactivity
QVQLVESGGGLVQAGGSLRLSCAASGSTFVWYAMGWYRQAPGKERELVAVIDWSGGSTSYADSVKGRFTISRDNAKNTVYLQMNSLKPEDTAVYYCAADSGHYYGLYYWGQGTQVTVSS	low polyreactivity
RFQLVESGGGLVQAGGSLRLSCAASGFTFRDYSMGGYRQAPGKERELVATISWGGASTSYADSVKGRFTISRDNAKNTVYLQMNSLKPEDTAVYYCNVRAQRRHGGYDHWGQGTLVTVSS	low polyreactivity
QVQLVESGGGLVQAGGSLRLSCAASGRTVYRYAMGWYRQAPGKERELVAAITGSGSSTYYADSVKGRFTISRDNAKNTVYLQMNSLKPEDTAVYYCAAARPRLGSAGKFGYWGQGTQVTVSS	high polyreactivity
QVQLVESGGGIVQAGGSLRLSCAASGGTFHYYAMGWYRQAPGKERELVAAINRSGDSTYYADSVKGRFTISRDNSKNTVYLQMNSLKPEDTAVYYCAVSYYGADGNPFPHDYWGQGTQVTVSS	low polyreactivity
QVQLVESGGGLVQAGGSLRLSCAASGRIFGYYAMGWYRQAPGKERELVAPITKTVGGTYYADSVKGRFTISRDNAKNTVYLQMNSLKPEDTAVYYCAARVWTGNGRSKGAYDYWGQGTQVTVSS	high polyreactivity

Sequence	polyreactivity (PSR sort gate)
QVQLVESGGGLVQAGGSLRLSCAASGLTFSLNAMGWYRQAPGKERELVAAISFSGGSTYYADSVKGRFTISRDNAKNTVYLQMNSLKPEDTAVYYCAVRKRVGRGRYGYWGQGTQVTVSS	high polyreactivity
QVQLVESGGGLVQAGGSLRLRCAASRRTLGVYALGWYRQAPGKERELVATITAGGSITSYADSVKGRFTISRDNAKNTVYLQMNTLKPEDTAVYYCAAEQGCSVLYDSWGQGTQVTVSS	low polyreactivity
QVQLVESGGGLVQAGGSLRLSCAASGFIFPFYAMGWYRQAPGKERELVAVIRTSSDRTYYADSVKGRFTISRDNAKNTVYLQMNSLKPEDTAVYYCAAETYRLFDYWGQGTQVTVSS	low polyreactivity
QVQLVESGGGLVQAGGSLRLSCAASGRTITFYTMGWYRQAPVKERELVARITGGGSTFYADSVKGRFTISRDNAKNTVYLLMNSLKPEDTAVYYCAREYASAFWYPMYYWGQGTQVNVSS	low polyreactivity
QVQLVESVGGLVQAGGSLRLSCAASGSTIGWNAMGWYRQAPGKERELVAAISSSGGSTNYADSVKGRFTISRDNAKNTVYLQMNCLKPEDTAVYYCAKGRRPGYGYGYWGHGTQVTVSS	low polyreactivity
QVQLVESGGGLVQAGGSLRLSCAASGRTFWPNAMGWYRQAPGKERELVAGIDWSGGSTYYADSVKGRFTISRDNAKNTVYLQMNSLKPEDTAVYYCNKVYYSYIPSTYGYWGQGTQVTVSS	high polyreactivity
QVQLVESGGGLVQAGGSLRLSCAASGYIFTYNAMGWYRQAPGKERELVAAISSGGSTNYADSVKGRFTISRDNAKNTVYLQMNSLKPEDTAVYYCAAPVWTYDDYFSYSYSYGYWGQGTQVTVSS	low polyreactivity
QVQLVESGGGLVQAGGSLRLSCAASGSSFRSNDMGWYRQAPGKERELVARITSSVGSTYYADSVKGRFTISRDNAKNTVYLQMNSLKPEDTAVYYCAKRYYHYPYGYRDYDYWGQGTQVTVSS	low polyreactivity
QVQLVESGGGLVQAGGSLRLSCAASGSTFIDYGMGWYRQAPGKERELVAAIDLDSGDTYYADSVKGRFTISRENAKNTVYLQMNSLKPEDTAVYYCAAQYWYRYNYWGQGTQVTVSS	low polyreactivity
QVQLVESGGGLVQAGGSLRLSCAASGSTFYWYAMGWYRPAPGKERELVAAISSGADTSYADSVKGRFTISRDNAKNTVYLQMNSLKPEDTAVYYCARRYRARGSMYYWGQGTKVTVSS	high polyreactivity
QVQLVESGGGLVQAGGSLRLSCAASGRTFFSYAMGWYRQAPGKERELVAAITYSGGRTYYADSVKGRFTISRDNAKNTVYLQMNSLKPVDTAVYYCAATHYREKMDYWGQGTQVTVSS	low polyreactivity
QVQLVESGGGLVQAGGILRLICAASGRTFRYNAMGWYIQAPGKERELVASINSRGDSTYYADSVKGRFTISRDNAKNTVYLQMNSLKPEDTAVYYCNKRIGVGAYYVRYGYWGQGTQVTVSS	high polyreactivity
QVQLEESGGGLVQAGGSLRLSCAASGFITSHYAMGWYIQAPGKERELVATISSGGSTYADSVKGRFTISRDNAKNTVYLQMNSLKPEDTAVYYCNVRLQGTYRAGVRGDYWGQVTQVTVSS	high polyreactivity
QVQLVESGGGLVQAGGSLRLSCAASGRIFYPYAMGWYRQAPGKERELVAAITGRGGSTYYADSVKGRFTISRDNAKNTVYLQMNSLKPEDTAVYYCATVQSGRVRTYDYWGQGTQVTVSS	high polyreactivity
QVQLVESGGGLVQAGGSLRLSCAASGSIFGPNAMGWYRQAPGKERELVAAITSGSSTKYADSVKGRFTISRDNAKNPVYLQMNSLKPEDTAVYYCAASGTTTWKYGYWGQGTQVTVSS	low polyreactivity
QFQLVESGGGLVQAGGSLRLSCAASGFTFPRYAMGWYRQAPGKERELVAAITSGDRTYYADSVKGRFTISRDNAKNTVYLQMNSLKPEDTAVYYCAKSSPRKSSQKHSFYEYNYWGQGTQVSVSS	high polyreactivity
QVQLVESGGGLVQAGGSLRLSCAASGRTFPYYAMGWYRQAPGKERELVAAISKRGGTTYYADSVKGRFTISRDNAKNTVYLQMNSLKPEDTAVYYCAKDSAYGWVAYDYWGQGTQVTVSS	high polyreactivity
QVQLVESGGGLVQAGGSLRLSCAASGRIFSVNAMGWYRQAPGKERELVASISWSGGSTYYADSVKGRFTISRDNAKNTVYLQMNSLKPEDTAVYYCNARIESYWLDFDYWGQGTQVTVSS	low polyreactivity
QVQLVESGGGLVQAGGSLRLSCAASGRTFRHNTMGWYRQAPGKEREFVAVITSSGGSTYYADSVKGRFTISRDNAKNTVYLQMNSLKPEDTAVYYCNAKYHLSRSTYYYWGQGTQVTVSS	high polyreactivity
QVQLVESGGGLVQAGGSLRLSCAASGRTLQQYVMGWYRQAPGQERELVAAITRGGRTNYADSVKGRFTISRDNAKNTVYLQMNSLNPEDTAVYYCNTRYPSRLVAWLDYWGQGTQVTVSS	low polyreactivity
QVQLEESGGGLVQAGGSLRLSCAASGSIFSYNSMGWYRQAPGKDREFVATIDWRDGSTYYADSVKGRFTISRDNGKNTVYLQMNSMKPEDTAVYYCATDYIVVEDYYWGQGTQVTVSS	high polyreactivity
